Results as given in patent US20250215420, “MULTIPLEXABLE CRISPR EDITORS UTILIZING INTRACELLULAR EVOLVED APTAMERS FOR ENDOGENOUS EFFECTOR RECRUITMENT” (The Trustees of Boston College, published 2025).

What was measured:
[1] = system: MS2 coat protein (MCP)-SoxS R93A fusion (bacteriophage MS2); assay: ELONA; details: protein coated at 10 ug/mL; aptamer 0.25-2500 nM
[2] = system: MCP T45L-SoxS R93A T45L (bacteriophage MS2); assay: cell_activity; details: E. coli CRISPRa; some function retained
[3] = biological target: T1, MS2 coat protein (MCP)-SoxS R93A fusion, wild-type MCP (bacteriophage MS2); assay: cell_activity; CRISPRa in E. coli with dCas9, J1 promoter-GFP reporter; details: tags: fused to SoxS(R93A); MS2 hairpin in sgRNA scaffold
T1 chain: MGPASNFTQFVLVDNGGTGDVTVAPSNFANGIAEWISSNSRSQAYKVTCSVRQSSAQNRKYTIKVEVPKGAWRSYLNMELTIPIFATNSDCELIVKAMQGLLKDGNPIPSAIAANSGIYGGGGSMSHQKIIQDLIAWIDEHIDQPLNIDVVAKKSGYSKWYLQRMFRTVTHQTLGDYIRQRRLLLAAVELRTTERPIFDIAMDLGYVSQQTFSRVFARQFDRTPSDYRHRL
Description: To test the ability of the CRISPR system to accommodate the insertion of an RNA aptamer motif into the sgRNA and allow for locus-specific effector recruitment in E. coli cells, a construct was first designed to insert a known RNA aptamer against bacteriophage MS2 coat protein (MCP) into the tetraloop region of sgRNA (FIG. 3A, SEQ ID NO. 8). Correspondingly, MCP was fused with the SoxS transcriptional activator. Three plasmids (SP, AP, and RP) were designed to introduce into the cell the sgRNA-aptamer chimera, the MCP-SoxS fusion along with dCas9 (SEQ ID NO. 10), and a synthetic reporter construct, respectively (FIG. 4). Following a design principle established by a previous study, the synthetic reporter was constructed to control the expression of enhanced green fluorescent protein (eGFP) by CRISPR co-localized with RNA polymerase through aptamer-MCP interaction (FIG. 3B). This synthetic reporter construct contained a weak promoter and multiple protospacer sequences to be targeted by sgRNA to control levels of gene activation (FIG. 5A).
The distance of the sgRNA target from the transcription start site was also tested by using this reporter. […] Low GFP levels were also observed when an off-target gRNA was used that had no binding site on the J1 synthetic promoter. […]

MS2 aptamer
Kd [1]: 26.3 nM

UUAUCACCUUGGCUGCAGGCGUUUUAGAGCUAGAAAUAGCAAGUUAAAAUAAGGCUAGUCCGUUAUCAACUUGAAAAAGUGCGCACAUGAGGAUCACCCAUGUGCUUUUUU [gRNA J1.3-MS2 aptamer scaffold]
binding signal (fold GFP decrease vs wild-type MCP) [2]: 23

B1: gRNA J1.3-MS2 aptamer scaffold (ssRNA)
RNA: UUAUCACCUUGGCUGCAGGCGUUUUAGAGCUAGAAAUAGCAAGUUAAAAUAAGGCUAGUCCGUUAUCAACUUGAAAAAGUGCGCACAUGAGGAUCACCCAUGUGCUUUUUU
activity [3]: 56 fold GFP increase
